Some results are limits rather than exact numbers.

One may read the Kd as the free concentration of one partner at which half of the binding sites on the other are occupied at equilibrium, for simple one-to-one binding. Read a low Kd as a tighter complex.

What all share (assay): ELISA
For orientation: In an ELISA, binding on a coated surface is turned into a signal by an enzyme label.

In experiment [1] the target is T1, DENV-2 EDIII wild-type Fc-fusion antigen (dengue virus serotype 2 (DENV-2), …).
T1 chain: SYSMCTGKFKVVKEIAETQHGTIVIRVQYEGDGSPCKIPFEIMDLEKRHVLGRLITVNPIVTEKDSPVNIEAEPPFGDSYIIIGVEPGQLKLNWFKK

The target in another experiment is R2N_1G11.
The target in another experiment is R3N_2D3.
In experiment [2] the target is soluble E80 protein of DENV-3 (dengue virus serotype 3 (DENV-3)).
The target of experiment [3] is soluble DENV-2 envelope protein (D2E80) (dengue virus serotype 2 (DENV-2), …).
For experiment [4], the target named is soluble E80 protein of DENV-1 (dengue virus serotype 1 (DENV-1)).

B1: 2H12 mouse antibody (antibody, V domains shown)
VH: DVQLVEPGAELVQPGASVKMSCKASGYTFSSYWINWEKQRPGKGLEWIGNIYPGSGTVNYDDKFKSKATLTIDTSSNTAYMQLSSLTSEDSAVYYCTRGGSHAMDYWGQGTSVTVSS
VL: DIVMTQSQKFMSTSVGDRVSITCKASQNVRTSVAWYQQKPGQSPKALIYLASNRHTGVPDRFTGSGSGTDFTLTISNVQSEDLADYFCLQHWTYPYTFGGGTKLEIK
With B1, the Kd in experiment [1] is 0.39 nM.

B2: 3H5 mouse antibody (antibody, V domains shown)
VH: QVQLQQSGAEVARPGASVKLSCKASGYTFTSYWLQWVKQRPGQGLEWIGAIWPGDDDTRYAQKFQGKATMTADKSSSTAYIQLSNLASEDSAVYYCARKGGFAMDYWGQGTSVTVSS
VL: NIVMTQSPTSLAVSLGQRATISCRASESVDSFGKSFMHFYQQKPGQPPKLLIHLASNLESGVPARFTGRGSRTDFTLTIDPVEADDAATYYCQQNNEVPFTFGSGTKLEVK
B2: the Kd in experiment [1] was determined as 1.06 nM.

B3: soluble E80 protein of DENV-4 (domain or fragment)
chain: MRCVGVGNRDFVEGVSGGAWVDLVLEHGGCVTTMAQGKPTLDFELIKTTAKEVALLRTYCIEASISNITTATRCPTQGEPYLKEEQDQQYICRRDVVDRGWGNGCGLFGKGGVVTCAKFSCSGKITGNLVQIENLEYTVVVTVHNGDTHAVGNDIPNHGVTATITPRSPSVEVKLPDYGELTLDCEPRSGIDFNEMILMKMKKKTWLVHKQWFLDLPLPWAAGADTSEVHWNYKERMVTFKVPHAKRQDVTVLGSQEGAMHSALTGATEVDSGDGNHMFAGHLKCKVRMEKLRIKGMSYTMCSGKFSIDKEMAETQHGTTVVKVKYEGAGAPCKVPIEIRDVNKEKVVGRIISSTPFAEYTNSVTNIELEPPFGDSYIVIGVGDSALTLHWFRKG
As to B3, the dissociation constant Kd with R2N_1G11 was more than 67 nM; with R3N_2D3, 0.32 nM.

B4: 513 engineered and humanized antibody (antibody, V domains shown)
VH: QVQLVQSGAEVKKPGASVKVSCKAGFNIKDVYMSWVRQAPEQGLEWMGRIDPENGDTKYDPKLQGRVTMTADTSTNTAYMELRSLRSDDTAVYYCARGWEGFAYWGQGTLVTVSS
VL: DIVMTQSPASLAVSLGQRATISCRASENVDKYGNSFMHWYQQKPGQPPKLLIYRASELQWGVPDRFSGSGSGTDFTLTISSLQAEDVAVYYCQRSNEVPWTFGQGTKLEIK
For the molecule B4, the Kd in experiment [2] is 0.46 nM; in experiment [3], 0.087 nM; in experiment [4] it was 0.054 nM; in experiment [1], 0.066 nM.

B5: 2C8 mouse antibody (antibody, V domains shown)
VH: EVKLVESGGGLVQPGGSLSLSCAASGFTFTDYYMTWVRQPPGKALEWLALIRNKASGYTTEYSASVKGRFTISRDNSQSILYLQMNALRAEDSATYYCTRAKWDGHYFDYWGQGTTLTVSS
VL: DIQMTQSPASLSVSVGETVTITCRATKNIYNNLAWYQQKQGRSPQLLVYAATNLADGVPSRFSGSGSGTQFSLRINSLQSEDFGNYYCQHFWHTPWTFGGGTKLEIK
In turn, B5 registered a Kd in experiment [1] of 0.22 nM.

Values taken from paper PMC11320570 (2024).
